{"source": "paper PMC5421877", "about": "“SOCS3 inhibits the pathological effects of IL-22 in non-melanoma skin tumor-derived keratinocytes” (Oncotarget, 2017)", "molecules": {"B1": {"name": "IL-22: cytokine stimulus, R&D Systems (protein, UniProt Q9GZX6 34-179, looked up)", "Interleukin-22": "APISSHCRLDKSNFQQPYITNRTFMLAKEASLADNNTDVRLIGEKLFHGVSMSERCYLMKQVLNFTLEEVLFPQSDRFQPYMQEVVPFLARLSNRLSTCHIEGDDLHIQRNVQKLKDTVKKLGESGEIKAIGELDLLFMSLRNACI"}}, "type_in_all_cases": "cell-based, human", "key": {"IL-22R1 phosphorylation": {"tested_on": "IL-22R1 phosphorylation", "assay": "IP/WB of IL-22R1 phosphorylation in healthy keratinocytes (IL-22)", "conditions": "IL-22 10 min, no peptide, n = 3", "experimental": "(§1) Figure 5 KIR-ESS peptide inhibits IL-22-induced phosphorylation of STAT3 and Erk in healthy and SCC-derived keratinocytes (A) Protein extracts obtained from healthy keratinocytes (n = 3) pre-treated or not with 15 μM (left panel) or 75 μM (right panel), KIR, KIR-ESS and control (Ctrl1 or Ctrl2) peptides, and, then, stimulated or not with IL-22 for 20 min, were subjected to WB analysis to detect STAT3 (Tyr705), Erk and MEK phosphorylation. Filters were probed with anti-STAT3, -Erk and –MEK Abs (top). (B) Protein extracts obtained from healthy keratinocytes (n = 3) pre-treated or not with 75 μM KIR-ESS and control (Ctrl1) peptides, and, then, stimulated or not with IL-22 for 10 min, were subjected to immunoprecipitation for IL-22R1 and Jak1, and then analysed by WB to detect phosphorylated and unphosphorylated forms of the proteins. (C) Unphosphorylated and phosphorylated forms of STAT1 (Tyr701) and STAT3 (Tyr705) were monitored in keratinocytes treated with IFN-γ for 15 min by WB analysis (bottom). In all experimental groups, filters were stripped and re-probed with β-actin Ab. (D) Protein extracts were obtained from CAL27 (left panel) or CAL33 (right panel) lines treated or not with 75 μM peptides in presence of IL-22 or IFN-γ. WB was performed to detect basal and phosphorylated STAT1, STAT3 and Erk. […]"}, "MEK phosphorylation": {"tested_on": "MEK phosphorylation", "assay": "Western blot of MEK phosphorylation in healthy keratinocytes (IL-22)", "conditions": "IL-22 time course, no peptide, n = 3", "experimental": "as §1, with “[…],” for “stimulated or not with IL-22 for 20 min,”, “Erk. D.I. ratio indicates the densitometric intensity of phosphorylated/unphosphorylated target protein.” for “Erk.”"}, "Tyk2 phosphorylation": {"tested_on": "Tyk2 phosphorylation", "assay": "Tyk2 phosphorylation in healthy keratinocytes (IL-22)", "conditions": "IL-22 10 min, no peptide, n = 3", "experimental": "2nd- or 3rd-passage cultures of human keratinocyte strains (n = 5), obtained as previously described, were grown in serum-free Keratinocyte Growth Medium (KGM; Clonetics, Walkersville, MD, USA), for 3–5 days (at 60–80% confluence) before performing experiments. The HaCaT human keratinocyte cell line was a gift from N.E. Fusenig (Deutsches Krebsforschungszentrum, Heidelberg, Germany), and was grown in Dulbecco modified Eagle medium (DMEM; Biochrom, Cambridge, UK) supplemented with 10% Fetalclone II serum (HyClone Laboratories, South Logan, UT, USA). SCC-derived cell lines, CAL27-and CAL33 (American Tissue Culture Collection, ATCC, Milan, Italy), SCC12, SCC13 and SCC-15 (kindly provided by Dr. A. Marconi, University of Modena e Reggio Emilia, Italy), as well as M77015-08 and TE354.T (ATCC) were grown in DMEM (Biocrhom AG, Cambridge, UK) with 10% fetal bovine serum (HyClone Laboratories). Primary cultures of healthy keratinocytes and skin tumor cell lines were treated with peptides (KIR, KIR-ESS, Ctrl1 and Ctrl2) resuspended in 1X PBS for 1 h and, then, stimulated with 50 ng/ml IL-22 or 200 U/ml IFN-γ (R&D Systems, Minneapolis, MN, USA) in keratinocyte basal medium (KBM, Clonetics) or DMEM, respectively.\nTotal protein extracts were prepared as previously reported. Immunoprecipitation and immunoblotting were performed accordingly to standard procedures. […]"}}}
{"molecule": "B1", "values": [{"measurement": "IL-22R1 phosphorylation induced", "setting": "IL-22R1 phosphorylation", "value": "induced molecular cascade implicating phosphorylation of IL-22R1, Tyk2 and Jak1"}, {"measurement": "MEK1/2 activation", "setting": "MEK phosphorylation", "value": "culminated with STAT3, MEK1/2 and Erk1/2 activation"}, {"measurement": "Tyk2 phosphorylation induced", "setting": "Tyk2 phosphorylation", "value": "induced molecular cascade implicating phosphorylation of IL-22R1, Tyk2 and Jak1"}]}
